Where a chain is given by its changes, count along the chain named. In names and notes the source's numbering stands. Several values for one entry are separate records, joined by “and”; a condition that tells them apart may be missing. Equal values may be shown once. Read-outs that look alike come from different tables or passages of the source.
How the values were obtained:
Assay in all cases: cell-based or functional assay
[1] = biological target: T1, recombinant human APRIL (Tonbo Biosciences) (human, UniProt O75888 105-250, limits assumed)
T1 sequence (looked up): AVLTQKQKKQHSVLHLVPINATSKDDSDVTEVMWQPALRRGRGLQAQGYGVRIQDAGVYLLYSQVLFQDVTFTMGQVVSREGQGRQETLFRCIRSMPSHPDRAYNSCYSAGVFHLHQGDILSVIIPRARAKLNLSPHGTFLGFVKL

[2] = biological target: T2, recombinant human BAFF (BioLegend) (human, UniProt Q9Y275 134-285)
[3] = biological target: T2, recombinant human BAFF (BioLegend); remark: listed apart in the source
[4] = biological target: T1, recombinant human APRIL (Tonbo …); remark: listed apart in the source
[5] = biological target: T2, recombinant human BAFF (BioLegend); remark: listed apart in the source
[6] = biological target: T2, recombinant human BAFF (BioLegend); remark: listed apart in the source
[7] = biological target: BAFF 60-mer (an oligomer of twenty BAFF 3-mers)
[8] = biological target: T1, recombinant human APRIL (Tonbo …); remark: listed apart in the source

B1: atacicept (WT TACI-Fc sequences corresponding to atacicept, containing WT TACI 30-110; SEQ ID NO:132) (Fc fusion)
chain: AMRSCPEEQYWDPLLGTCMSCKTICNHQSQRTCAAFCRSLSCRKEQGKFYDHLLRDCISCASICGQHPKQCAYFCENKLRSEPKSSDKTHTCPPCPAPEAEGAPSVFLFPPKPKDTLMISRTPEVTCVVVDVSHEDPEVKFNWYVDGVEVHNAKTKPREEQYNSTYRVVSVLTVLHQDWLNGKEYKCKVSNKALPSSIEKTISKAKGQPREPQVYTLPPSRDELTKNQVSLTCLVKGFYPSDIAVEWESNGQPENNYKTTPPVLDSDGSFFLYSKLTVDKSRWQQGNVFSCSVMHEALHNHYTQKSLSLSPGK
IC50 (pM) APRIL [1]: 9260 pM
IC50 (pM) BAFF [2]: 8280 pM
BAFF IC50 (pM) [3]: 7740 pM
BAFF IC50 (Δ WT) [3]: 4.17 ratio

B2: Telitacicept/Tai'ai (RemeGen) (Fc fusion)
chain: SRVDQEERFPQGLWTGVAMRSCPEEQYWDPLLGTCMSCKTICNHQSQRTCAAFCRSLSCRKEQGKFYDHLLRDCISCASICGQHPKQCAYFCENKLRSPVNLPPEL
IC50 (pM) APRIL [1]: 17200 pM
IC50 (pM) BAFF [2]: 6850 pM
BAFF IC50 (pM) [3]: 9170 pM and 7300 pM

B3: belimumab, anti-BAFF monoclonal antibody (antibody, V domains shown)
VH: QVQLQQSGAEVKKPGSSVRVSCKASGGTFNNNAINWVRQAPGQGLEWMGGIIPMFGTAKYSQNFQGRVAITADESTGTASMELSSLRSEDTAVYYCARSRDLLLFPHHALSPWGRGTMVTVSS
VL: SSELTQDPAVSVALGQTVRVTCQGDSLRSYYASWYQQKPGQAPVLVIYGKNNRPSGIPDRFSGSSSGNTASLTITGAQAEDEADYYCSSRDSSGNHWVFGGGTELTVLG
IC50 (pM) BAFF [2]: 2260 pM
BAFF IC50 (pM) [3]: 2200 pM
BAFF IC50 (Δ WT) [3]: 1.18 ratio
IC50 (nM) APRIL [4]: 215000 nM
IC50 APRIL (Δ TACI 30-110-Fc) [4]: 55.8 ratio
IC50 (nM) BAFF [5]: 2500 nM
IC50 BAFF (Δ TACI 30-110-Fc) [5]: 0.43 ratio

B4: TACI WT 13 GS(G4S)2 (194) sc_Fc 218 (SEQ ID NO: 196) (Fc fusion)
chain: SLSCRKEQGKFYDHLLRDCISCASICGQHPKQCAYFCENKLRSGSGGGGSGGGGSEPKSSDKTHTCPPCPAPEAEGAPSVFLFPPKPKDTLMISRTPEVTCVVVDVSHEDPEVKFNWYVDGVEVHNAKTKPREEQYNSTYRVVSVLTVLHQDWLNGKEYKCKVSNKALPAPIEKTISKAKGQPREPQVYTLPPSRDELTKNQVSLTCLVKGFYPSDIAVEWESNGQPENNYKTTPPVLDSDGSFFLYSKLTVDKSRWQQGNVFSCSVMHEALHNHYTQKSLSLSPGGGGGSGGGGSGGGGSGGGGSGGGGSGGGGSGGGGSGGGGSGGGGSGGGGSGGGGSGGGGSEPKSSDKTHTCPPCPAPEAEGAPSVFLFPPKPKDTLMISRTPEVTCVVVDVSHEDPEVKFNWYVDGVEVHNAKTKPREEQYNSTYRVVSVLTVLHQDWLNGKEYKCKVSNKALPAPIEKTISKAKGQPREPQVYTLPPSRDELTKNQVSLTCLVKGFYPSDIAVEWESNGQPENNYKTTPPVLDSDGSFFLYSKLTVDKSRWQQGNVFSCSVMHEALHNHYTQKSLSLSPG
BAFF IC50 (pM) [6]: 5700 pM
BAFF 60-mer IC50 (pM) [7]: 24100 pM

B5: TACI WT 13 (G4S)4 (84) (TACI WT 13 GSG4S (74) Fc 73 (SEQ ID NO: 198) (Fc fusion)
chain: SLSCRKEQGKFYDHLLRDCISCASICGQHPKQCAYFCENKLRSGGGGSGGGGSGGGGSGGGGSSLSCRKEQGKFYDHLLRDCISCASICGQHPKQCAYFCENKLRSGSGGGGSEPKSSDKTHTCPPCPAPEAEGAPSVFLFPPKPKDTLMISRTPEVTCVVVDVSHEDPEVKFNWYVDGVEVHNAKTKPREEQYNSTYRVVSVLTVLHQDWLNGKEYKCKVSNKALPAPIEKTISKAKGQPREPQVYTLPPSRDELTKNQVSLTCLVKGFYPSDIAVEWESNGQPENNYKTTPPVLDSDGSFFLYSKLTVDKSRWQQGNVFSCSVMHEALHNHYTQKSLSLSPG
APRIL IC50 (pM) [8]: 34600 pM
BAFF IC50 (pM) [6]: 3290 pM
BAFF 60-mer IC50 (pM) [7]: 4330 pM

B6: TACI WT 13 GSG4S (74) Fc 73(G4S)4 (84) (TACI WT 13 (SEQ ID NO: 202) (Fc fusion)
chain: SLSCRKEQGKFYDHLLRDCISCASICGQHPKQCAYFCENKLRSGSGGGGSEPKSSDKTHTCPPCPAPEAEGAPSVFLFPPKPKDTLMISRTPEVTCVVVDVSHEDPEVKFNWYVDGVEVHNAKTKPREEQYNSTYRVVSVLTVLHQDWLNGKEYKCKVSNKALPAPIEKTISKAKGQPREPQVYTLPPSRDELTKNQVSLTCLVKGFYPSDIAVEWESNGQPENNYKTTPPVLDSDGSFFLYSKLTVDKSRWQQGNVFSCSVMHEALHNHYTQKSLSLSPGGGGGSGGGGSGGGGSGGGGSSLSCRKEQGKFYDHLLRDCISCASICGQHPKQCAYFCENKLRS
APRIL IC50 (pM) [8]: 11900 pM
BAFF IC50 (pM) [6]: 1040 pM
BAFF 60-mer IC50 (pM) [7]: 2580 pM

B7: TACI 26 GS(G4S)2 (194) scFc_218 (SEQ ID NO: 199) (Fc fusion)
chain: B4 chain with K10E, F11Y, Y35D
BAFF IC50 (pM) [6]: 8240 pM
BAFF 60-mer IC50 (pM) [7]: 106000 pM

B8: TACI 26 GSG4S (74) Fc 73 (G4S)4 (84) TACI 26 (SEQ ID NO: 201) (Fc fusion)
chain: B6 chain with K10E, F11Y, Y35D, K311E, F312Y, Y336D
APRIL IC50 (pM) [8]: 3760 pM
BAFF IC50 (pM) [6]: 779 pM
BAFF 60-mer IC50 (pM) [7]: 778 pM

B9: TACI WT 1 GS(G4S)2 (194) scFc_218 (SEQ ID NO: 203) (Fc fusion)
chain: VAMRSCPEEQYWDPLLGTCMSCKTICNHQSQRTCAAFCRSLSCRKEQGKFYDHLLRDCISCASICGQHPKQCAYFCENKLRSGSGGGGSGGGGSEPKSSDKTHTCPPCPAPEAEGAPSVFLFPPKPKDTLMISRTPEVTCVVVDVSHEDPEVKFNWYVDGVEVHNAKTKPREEQYNSTYRVVSVLTVLHQDWLNGKEYKCKVSNKALPAPIEKTISKAKGQPREPQVYTLPPSRDELTKNQVSLTCLVKGFYPSDIAVEWESNGQPENNYKTTPPVLDSDGSFFLYSKLTVDKSRWQQGNVFSCSVMHEALHNHYTQKSLSLSPGGGGGSGGGGSGGGGSGGGGSGGGGSGGGGSGGGGSGGGGSGGGGSGGGGSGGGGSGGGGSEPKSSDKTHTCPPCPAPEAEGAPSVFLFPPKPKDTLMISRTPEVTCVVVDVSHEDPEVKFNWYVDGVEVHNAKTKPREEQYNSTYRVVSVLTVLHQDWLNGKEYKCKVSNKALPAPIEKTISKAKGQPREPQVYTLPPSRDELTKNQVSLTCLVKGFYPSDIAVEWESNGQPENNYKTTPPVLDSDGSFFLYSKLTVDKSRWQQGNVFSCSVMHEALHNHYTQKSLSLSPG
BAFF IC50 (pM) [6]: 4420 pM
BAFF 60-mer IC50 (pM) [7]: 15800 pM

B10: TACI WT 131 GS(G4S)2 (194) scFc_218 (SEQ ID NO: 205) (Fc fusion)
chain: SRVDQEERFPQGLWTGVAMRSCPEEQYWDPLLGTCMSCKTICNHQSQRTCAAFCRSLSCRKEQGKFYDHLLRDCISCASICGQHPKQCAYFCENKLRSPVNLPPELGSGGGGSGGGGSEPKSSDKTHTCPPCPAPEAEGAPSVFLFPPKPKDTLMISRTPEVTCVVVDVSHEDPEVKFNWYVDGVEVHNAKTKPREEQYNSTYRVVSVLTVLHQDWLNGKEYKCKVSNKALPAPIEKTISKAKGQPREPQVYTLPPSRDELTKNQVSLTCLVKGFYPSDIAVEWESNGQPENNYKTTPPVLDSDGSFFLYSKLTVDKSRWQQGNVFSCSVMHEALHNHYTQKSLSLSPGGGGGSGGGGSGGGGSGGGGSGGGGSGGGGSGGGGSGGGGSGGGGSGGGGSGGGGSGGGGSEPKSSDKTHTCPPCPAPEAEGAPSVFLFPPKPKDTLMISRTPEVTCVVVDVSHEDPEVKFNWYVDGVEVHNAKTKPREEQYNSTYRVVSVLTVLHQDWLNGKEYKCKVSNKALPAPIEKTISKAKGQPREPQVYTLPPSRDELTKNQVSLTCLVKGFYPSDIAVEWESNGQPENNYKTTPPVLDSDGSFFLYSKLTVDKSRWQQGNVFSCSVMHEALHNHYTQKSLSLSPG
BAFF IC50 (pM) [6]: 4580 pM
BAFF 60-mer IC50 (pM) [7]: 14300 pM

Reference: patent US20240279310A1 (ALPINE IMMUNE SCIENCES, published 2024)
